Patent publication US20090324593A1 (MacroGenics, published 2009)
Substitutions are numbered along the chain they refer to. Names may count otherwise.

T1: WNV E-protein domain III (dIII) (West Nile Virus, UniProt Q9Q6P4 580-705)
T1 construct: domain: Domain III; also called the antigen; the receptor
T1 sequence (looked up): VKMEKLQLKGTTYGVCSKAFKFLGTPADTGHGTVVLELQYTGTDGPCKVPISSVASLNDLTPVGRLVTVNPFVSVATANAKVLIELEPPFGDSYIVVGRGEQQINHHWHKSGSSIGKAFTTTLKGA

B1: Humanized E16 huE16-3.1 (huE16HC T71A / huE16LC) (antibody, V domains shown)
VH: QVQLVQSGAEVKKPGASVKVSCKASGYTFTDYWIEWVRQAPGQGLEWMGDILCGTGRTRYNEKLKARVTMTADTSTSTAYMELRSLRSDDTAVYYCARSASYGDYADYWGQGTTVTVSS
VL: DIVMTQSPDSLAVSLGERATINCKASQDVSTAVAWYQQKPGQPPKLLIYWASTRHTGVPDRFSGSGSGTDFTLTISSLQAEDVAVYYCQQHYTTPLTFGQGTKLEIK
notes: also called huE16-3 (T71A)/huE16LC; huE16HC-2 T71A/huE16LC
B2: Humanized E16 huE16-3.2 (huE16HC T71A / huE16LC-2 Y49S) (antibody, V domains shown)
VH: B1 VH
VL: B1 VL with Y49S
notes: also called hE16-3.2; huE16-2 (T71A)/huE16LC-2 (Y49S)
B3: Humanized E16 huE16-2.1 (huE16HC-2 V67A, M69F, T71A / huE16LC) (antibody, V domains shown)
VH: B1 VH with V68A, M70F
VL: B1 VL
B4: Humanized E16 huE16-2.2 (huE16HC-2 V67A, M69F, T71A / huE16LC-2 Y49S) (antibody, V domains shown)
VH: B1 VH with V68A, M70F
VL: B1 VL with Y49S

Biological target: T1, WNV E-protein domain III (dIII)
Test: antigen capture ELISA (sheet title: E9 captured E protein DIII), 2.5 ng/well domain III captured by mouse antibody E9, HRP anti-human IgG F(ab')2 detection
Protocol: Protocol for antibody-capture ELISA assay: 2.5 ng/well of dIII was captured on 96-well Maxisorp plates by mouse anti-WNV E-protein antibody E9 at room temperature for 2 hours. A serial of two-fold dilution of conditioned medium of chE16, huE16, huE16HC/ch2B6LC or chE16HC/huE16LC starting from 5 ng/well was added to each well. The plate was incubated at room temperature for 1 hour, then binding was detected by HRP conjugated F(ab′)₂ goat anti human IgG F(ab)′₂ specific secondary antibody (Jackson ImmunoResearch, Inc.) at 1:10,000 dilution. After incubation with the secondary antibody for approximately 45 minutes, the plate was developed using a TMB substrate. After 5 minutes incubation, the reaction was stopped by 1% H₂SO₄. The OD₄₅₀ nm was read by SOFTmax program. Between each step, the plates were washed 3 times with PBS/0.1% Tween20. Plates were blocked by 0.5% BSA in PBS/0.1% Tween 20 for 30 mins at room temperature before adding conditioned medium.
After three days in culture the amount of human IgG expressed was quantitated by ELISA. Binding to WNV E-protein domain III (dIII) was determined by ELISA and antibody-capture ELISA assays as described above.

EC50 (read off the curve), ~0.01 µg/mL:
B1
B2
B3
B4
